Assay: soluble on expression in E. coli; label from the status in PepcDB or PDB records

Soluble on expression in E. coli, not soluble:
MGSDKIHHHHHHMPNDTHTTQANVDPAEIAKFEAMAQSWWDPNGEFKPLHQLNPLRLNYIDSTAGGIFAKKVLDVGCGGGILSESMAKLGANVDGIDMGEAPLEVARLHALESGVMVNYHKTTAEAHSASHANHYQVVTCMEMLEHVPDPQSVIQACCDMVEPGGFVFFSTINRNMLSYVQAILGAEYLLKLLPIGTHDHSKFIRPSELMAMVDNTDLICKDALGISFNPLTSIFSYTKSLEVNYMIATQKMAD
MGSDKIHHHHHHMPPSFLWISSEVDLKVSSNGDCDHVVFLVDSHFNTCTESNYESFKVSCVAGTNTKDPTEFTKIELGHRPAGSTESPYDNSGFSVEFNGVFENSKQIECVLTRSSINREKRSSISTKKISKTKPKTQLHIFCYRICEIETKIQVISGRSIGSCRCRRNNKIIIPKNADLQILQRESESSHCHYREKNHKKLFHENSLPVMKFSVFNYNTQKW
MGSDKIHHHHHHMPRGPTKKKTEDTTSQSLESKLWATADKLRGHLDAADYKHVVLGLIFLKYISDRFAQRHEEIIREEAGTYAAEDRDEYTAEGVFWVPASSRWAVVQTAAKQPDIGKRIDGAMTDIERENPHLKNILPKGYARPTLDQRRLGELVDLIGTIGLGTAEHQARDTLGRVYEYFLGRFASAEGKRGGEFYTPASVVRTLVTMLAPYKGRIYDPCCGSGGMFVQSEKFIEAHGGKVGDISVYGEESNPNTWKLALMNLAIRGIEADLGPEAADTFHKDLHPDLRADYILANPPFNISDWGGDLLRDDKRWQYGIPPTGNANFAWVQHMVHHLAPYGIAGFVLANGSMSSNTSGEGEIRKNLIEADLVDCMVAMPGQLFYSTQIPVCLWFLAKNRDDGRGMTGKELFERTGEVLFIDARNMGFMADRTHRELTDEDIQKIADTYHNWRGDGDGEYADIPGFCKAASLDDIRKNGHVLTPGRYVGAAAKDDDGEPFEEKMDRLTKELSAQLAEGRRLEDEMLKNFRVLGYEL
MGSDKIHHHHHHMPRYARKRSSTGIYHVMLKGIDGRDIFLDDEDKEKFIENMLKARDKGNFELYAYCLMDNHLHILIKESEGIGTSIKRIAVGYVQWHNNKYGRIGHLFQNRYLSEPVETESYLLTVVKYIHQNPLKARIVTQLADYKWSSYLQYLAAYKGDNSHIDPLLIMEYFKIQTEFESYMNEPTNSECLDYKQSSKYTDEILKNIIRESFGINDLIDMPNDMRNALIKDIYQSTGVSIRQLARVLGIGKSIVERALK
MGSDKIHHHHHHMPSRRGFLAGLLASSVTPTATWADVGAPAYLSAGKDALGLFVMAGLSAAGEVLFRHPLPDRGHAASAHPTRPEAVAFARRPGRFADVIDCRSGAQLARLEPPEGHHFYGHGVFSPEGEVLYTTENDYARGAGVIGVWNAGDYHRIGQFSSGGIGPHEMLLRRDAPGLVVANGGIETHPESGRAKLNIPFMRPNLSYLRLSGEIQHQMELPADLHKNSIRHIAVRSDGAVGFAMQWQGDLGADVPIVGLHQPGSAPRLMAEDDPRLRNLNGYGGSIAFSGDETAIAVTSPRGGVVQVMDCTSGALQAEHALSDVCGLAPLKDGFLVSTGTGIMAQIGTEVTTLTQAPLAWDNHLIALSSAASAPRQP
MGSDKIHHHHHHMPTAAAQENIRWEECPPQVDIASAQCGSIDVPMHYSDPSLGDISVGFVKVPAQGEKHGTIFGNSGGPGGDAYSFFGSQSMNWPEAMYQNYDLVAVQPRGMVGSTPVNCDNIAPGYDFLSLLTREGAFVKESCEIGTPGYTSSLTTDNTANDWERVRQALGDDKISIFGLSYGTYLGSVYATRYPQHTDKVVLDSAMAPSLAWNGIMASQEQGYKNSLNDFFTWVAENNDTYGLGTTPLAVYQNWSNKIVAETGTNPTVAPPPAQVGDVPPAFAWAGQAGADMMTATNPTSVQLQGLATQLLNPGSNQSLSPLLNVTRAYIPQPSTWPMLAGAISGQTPIPDVTDTGDDPYVIESINASVNMQRMVMCNENTVAPDPVAMARMAWTSMVTGDVFDIYSVKFSSGQACSGITPTSGRQPTDGSQLAVQPLLLQGTSDPQTPYWTHNELADAMNAHVVTVNGPGHGQSIGGTNQAINDIVVDYLRTGHTDATWVEGNTPTPITAG
MGSDKIHHHHHHMPTDHSFQIKPSQAAPLTSQQLYRKCDLKELSTDCQSTAELTPLDDIVGQERAQQAVEFAMGIKEKGYNIYAIGQNGLGKRTMMLRYLNRHEPSEHSLYDWCYVVNFDDTRSPKVLKLAAGSGLEFKKAIEKLMLKLVKALPLAFDNEMYYARAEKLKSQLAQKQEAALTELSEEAKQKGISLSLTLQGDYQMIALNGEEPHDEYSFTALTETERNQFESNINGLEVKLRNIIRQNTEWEEEFSDTQQEHDEQVAKDVLIHFFKPLKDKYKHQPEVRAFLTGMQADILDNLDIFLEESEEQLALAYASLEKKMPRRYQVNVLVCQGAQKFPIVVEESPSYHSLFGYVENATFRGTVFTDFSLIRSGSLHKANGGVLLMDAVKVLERPYVWDGLKRALRSRKLDLSSLEREVSLSGTISLAPEPIPLDVKIILFGDHETYQLYNTMIQILVNYLELPLILKM
MGSDKIHHHHHHMPTLTINQRLDALLPKLQDARLLSNRGIGNEIGFYIFDYDAEYEPLVQRYVDRLKLQLTSSPSGFASPSLSEQQDRAGSPIQLILLEIDLYKTILDILSERGVLKKAFELEATKGNAALAKTVAPLVRPDQVIAYIQKKLRGDEQLVIMTGVGASWPLLRSHSILNNLHPVLDKIPLVMFFPGSYDGHELRLFDTFKDDNYYRAFPLIPHQQHHL
MGSDKIHHHHHHMPTNVTAEYLAAEEEYRNAKTIPEKIRALEKMYALVPKHKGTEKLRLQIKRKLAELRKELEKQRQQRKGGGYSLAVKKEGAAQIVLVGLPNVGKSELLKALTGVDVESADYPFTTTEPVPAMLNYKDVQIQLVEVPGLIEGAALGKGMGPQLLAVVRNADAIAIVVDLSEDPVRQMNILLQEFERAGIKVNKKKPKVEIRKTPSGGIVINGIENIKGDIDEVMKMLREEKIHSAEITVMEPVTLEEFADALDDSLVWKKAIIIANKGDAPGSRANYEKLVKAFGERFKIIPVSAKKRINLEAVKEAIYEIADIIRVFTKSPGEEPAYPPIALRKGATVQDVAERIHKDLVKNFKYARVWGKSVKFPGQRVGLDHVLEDGDIVEIHAR
MGSDKIHHHHHHMPTPIKIGVSSCLLGEKVRYDGGHKHDRYITDTLGRFFEFVSVCPEAECGMPIPREAMRLEADGGEVRLVTSRSRVDKTEQMLDFCRRKVLELESEDLCGFIFKKDSPSSGLFNVKLYRRGMPTKAGRGLFADAVTKHFPLLPVEEEGRLHDMGLREHFIERVFAFRRWKDLLLGGKSLGRLVAFHADHKLLIMAHSPEVYREMGALVARGKELGCDDLFACYQELFMKALSLHATVRKNTNVLQHIAGYFKKQLTREEKAELQEVIGEYHRHLVPLIVPVTLLRHYVKKYGQEYLLKQVYLSPTPLELMLRNHV
MGSDKIHHHHHHMPTTASVLIRDSAPREATSPPFLDIRDVHKRFAGVKALRGVSLAIERGQIYHLLGENGCGKSTLIKIISGAQPPDEGTLVVEGREVAGLSPIMALAAGIETVYQDLSLLPNLSVAENIALSQQLVASGGQLARRLDLARLKATATRALEAVNLPAGDGFLATRVDELPIATRQLIAIARVIATDAKLVIMDEPTTALTKREVDNLIAVVEKLRAKGVAVLFVTHKLDECRTIGGRAIILRDGRKVMEGDIADFTKKDLSHWMTGRALDDSRYREAERGGERLLDVRDLGRANAFGGVSFSLNRGEILGVTGLLDSGRNELALALAGVCPADRGGVSLAGERVVLSQPADAIAAGIGYLPEDRLSEGLFLEKPIADNIIASVLDRLRGRLGMLDRPLSRSRAQEMTDDLQIATPDIANPVQSLSGGNQQRVLIGRWLMIEPRLLVLHGPTVGVDVGSKDTIFRIIQRLAKGGMAVIIISDDLPELLQNCDRILVMRKGRVAEVFDAEGLGEGALYRALVAEESPRSLP
MGSDKIHHHHHHMPYTIPNNSCVGCDNCRPQCPTGAIKIEDNEYWVDPGLCNNCEGYYSEPQCVIACPTKSPIPWQAKKGRCKVEPRDSTSLDLFSNGKNNPFASAIAIWEACNVLGQRTSLHWETDEDGYLCYSRQVNQGKGAIAFHIQDPFQVNDKATDIAAIEALDIRAACIHLIFAGYATALEQPWEQEFAIDERQIEKYLGMEKRKDLSKAAKLALMKNLVQQACSLIISIDWPQQGRINGFSVTNSRLWHLVDIQHHFQEDNHGCKYLIGLTFKVKAGLWAQYFLNKQACKERTAFYQYGSLPKTLLTTVMSIWQQHEGAVRLMLWLLFKTKMGKEQRITIPTLLRIAYGEEKVALASRQREERKRLLRTFESDLEILNHYGMKPLFDPVTYPPEIQPLWAKLIDLPEDPDEALEFWTNDGGSETRLTDTGPRGKWNLLMNARILAFELPPEWEQQISESEKKKTRTAKAKKKTKATNDLLGEQILQARKNLNLSQRELAKLTGKSQSWIRDIENGRLKAKLEDQLLLRKVLNMASS
MGSDKIHHHHHHMQASFMRMTDKRSPGKPLHPHGVLRPLVFKGRGALSNHDGRFDHLQHADIDDGWHNLDQDLAPLPTEVLIDNSRSIINWNNSPDVPFDRSINPYRGCEHGCIYCFARPTHTYLGLSAGLDFESRILVKPDAARLLRQELSKQHYRCAPIAMGTNTDPYQPLEKQHQLTRQILQVLAEFRHPVSIVTKAAMVERDIDILAPMASQGLVQVFISITTLSNQVSRTLEPRAAAPQRRLDTIRRLHQAGIPTGVMTAPVIPVLTDPELEHILAAASEAGASSAGYVLLRLPLEVAPLFEEWLQHHYPLKASHVMSIIRQSRDGKTNHTDFHARMRGNGLFAEMIRQRFRLACRKLGLNQRSMEMDTSLFRPPGKPEQLGLF
MGSDKIHHHHHHMQDSPVVLKVSHVAKSFRLPTEQATGLKMAFLNWTKGIKGYTEQKVLRDIDFEVHRGDFFGVVGRNGSGKSTLLKIISQIYVPDQGSVDVYGKLVPFIELGVGFNPELTGRENVYLNGALLGFSHSEIDAMYDDIVEFAELEEFMDQKLKNYSSGMQVRLAFSVAIKAQGDILVLDEVLAVGDEAFQRKCDAFFKKVQADPNKTVILVTHSMDAVKKYCNKAILIRDGEIVVSGDKNQVADQYTLDNLKGNEPLPEKKKQNGEYAIGLNATVPELKIVPKSDLSTDGKHPFQFDVVYEYKDSGTHYVAVNLLDLKRGGIVYDSGSRTLVQTSSGKHRFALEMPIDMLNSGVYRLYASVRVDDGDSADSETKMVAFTNEANGCVFSINNPDHEDYALLNEKAMIIRKRK
MGSDKIHHHHHHMQFVFDIDGTICFDRFQIDARIKAILKDAANYGHQISFASARSYRDCIDVLGQELSQKTVIGLNGGLAYKAGELILEKPMNHRAFDLALYYCHRYQLPYFVDDDFNYAHHLEQFIPFIHSVDPLKLAKEVGVEDLKHPIKMVVFFGNHLDKIAEVSHHLAKLEQLDITFHDDESCLYLNPKEVTKSSTIQELFDHDFVAFGNDRNDIAMFQAAVYSVQVGDFADLSPFADTQVLLRQDYHQAVADKIHETFEKFRA
MGSDKIHHHHHHMQIKLSTDGCTDFMFILENTVNHGIIMQPYHSYFVGPMDICSALITLSGTINTFGVRFRPCGLSRFMKISLSELTNIRLSVNDLNTIFSDSFAERLFEEQGIQCKINLIERYLKKHLYKSNHTMDTQISYAVNQINAHEGKISISHLMDEVNLCQRHFERKFKLHTGFTPQKYNSIVKFKNAIKILRNESFDNLLSVAVKAGYYDASHLSREVKKLSGSTPNFFLSLPPDNETTIIYTK

Reference: the DeepSol protein solubility set
